The results in this text go back to patent publication US20200392227A1 (LYVGEN BIOPHARMA, published 2020).

Where a chain is given by its changes, count along the chain named. Like-named read-outs stand apart in the source and are kept apart here.

The target in assay [1] is T1, human FcRI protein (MednaBio, E1031) (human, UniProt P12314 16-288, limits assumed).
T1 construct: Bought; loaded on anti-penta-HIS biosensors; also called FcγRI
The assay is described as follows: BLI. In outline:
(§1)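 On an Octet Red96 System, anti-penta-HIS biosensors loaded with commercial human Fc receptor proteins were dipped into test IgG diluted 1:3 over 8 points from 300 nM. Fcγ receptor runs used pH 7.2 and FcRn runs used pH 6. Global fitting of these biolayer interferometry data gave the values for Kd, kon and koff, using a 1:1 binding model.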
A general note: Biolayer interferometry detects binding as a change in optical thickness at a sensor tip.

Assay [2] has as its target T2, human FcRIIA protein (MednaBio, E1033) (human, UniProt P12318 34-218, limits assumed).
T2 construct: Bought; also called FcγRIIA
T2 sequence (looked up): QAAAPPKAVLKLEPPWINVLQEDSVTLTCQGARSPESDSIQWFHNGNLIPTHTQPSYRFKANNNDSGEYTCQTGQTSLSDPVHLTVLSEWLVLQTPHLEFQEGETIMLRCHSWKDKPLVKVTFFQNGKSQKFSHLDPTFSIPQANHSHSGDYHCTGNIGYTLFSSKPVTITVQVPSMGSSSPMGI
Kind of assay: BLI. The method in brief:
as §1

The target in assay [3] is T3, human FcRIIB/C protein (MednaBio, E1034) (human, UniProt P31994 43-217, limits assumed).
T3 construct: Bought as FcRIIB/C; also called FcγRIIB; CD32B
T3 sequence (looked up): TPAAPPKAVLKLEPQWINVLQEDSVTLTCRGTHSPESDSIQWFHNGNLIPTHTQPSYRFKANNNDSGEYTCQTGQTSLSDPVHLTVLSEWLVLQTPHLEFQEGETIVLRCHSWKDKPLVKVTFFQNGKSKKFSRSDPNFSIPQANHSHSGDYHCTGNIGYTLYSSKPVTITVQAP
The assay is described as follows: BLI. In outline:
as §1

Assay [4] deals with T4, human FcRIIIA-F158 protein (MednaBio, E1036) (human, UniProt P08637 17-208).
T4 construct: Bought; also called FcγRIIIA(F)
T4 sequence (P08637 17-208 limits assumed): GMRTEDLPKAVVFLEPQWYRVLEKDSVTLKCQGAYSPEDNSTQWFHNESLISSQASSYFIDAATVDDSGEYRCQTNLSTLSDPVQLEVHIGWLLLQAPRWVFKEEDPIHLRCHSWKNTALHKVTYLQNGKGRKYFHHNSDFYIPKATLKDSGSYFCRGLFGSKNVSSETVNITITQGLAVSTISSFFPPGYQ
Kind of assay: BLI. In outline: as §1

The target of assay [5] is T5, human FcRIIIA-V158 protein (MednaBio, E1035) (human, UniProt P08637 17-208).
T5 construct: Bought; also called FcγRIIIA(V); FcgRIIIA(V)
T5 sequence (P08637 17-208 F176V): as the sequence (P08637 17-208 limits assumed) above, with F160V counted along it
The assay is described as follows: BLI. The method in brief: as §1

Assay [6] concerns the target T6, human FcRIIIB protein (MednaBio, E1037) (human, UniProt O75015 17-200).
T6 construct: Bought; also called FcγRIIIB; FcgRIIIB
Kind of assay: BLI. In outline:
as §1

Assay [7] deals with T7, human FcRn protein (MednaBio, E1032) (human, UniProt P55899 24-297; P61769 21-119).
T7 construct: Bought; assays at pH 6
T7 sequence (P55899 24-297 limits assumed, form in doubt, chain 1 of 2): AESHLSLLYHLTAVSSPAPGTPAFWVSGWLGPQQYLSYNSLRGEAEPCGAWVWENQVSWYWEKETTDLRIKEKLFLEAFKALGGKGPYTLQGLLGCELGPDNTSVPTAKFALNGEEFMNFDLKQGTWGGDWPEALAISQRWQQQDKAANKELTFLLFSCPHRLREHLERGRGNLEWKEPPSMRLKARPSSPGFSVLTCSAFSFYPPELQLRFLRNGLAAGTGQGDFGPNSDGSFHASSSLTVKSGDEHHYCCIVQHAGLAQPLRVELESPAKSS
T7 sequence (P61769 21-119 limits assumed, form in doubt, chain 2 of 2): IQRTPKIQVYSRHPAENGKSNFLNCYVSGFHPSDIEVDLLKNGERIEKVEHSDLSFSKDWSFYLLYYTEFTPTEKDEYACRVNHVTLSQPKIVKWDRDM
The assay is described as follows: BLI. In outline: as §1

For assay [8], the target named is T8, human FcγRIIC expressed on CHO cells (human, UniProt P31995 43-323).
T8 construct: whole, on cells
T8 sequence (looked up): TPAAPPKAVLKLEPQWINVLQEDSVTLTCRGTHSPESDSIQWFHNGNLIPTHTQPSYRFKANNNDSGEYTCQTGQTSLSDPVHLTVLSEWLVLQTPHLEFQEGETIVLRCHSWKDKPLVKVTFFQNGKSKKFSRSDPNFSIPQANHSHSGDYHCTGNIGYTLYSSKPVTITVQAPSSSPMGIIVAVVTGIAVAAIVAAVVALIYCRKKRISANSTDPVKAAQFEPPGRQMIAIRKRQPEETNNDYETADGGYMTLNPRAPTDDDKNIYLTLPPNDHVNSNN
The assay is described as follows: FACS, CHO cells expressing FcγRIIC. As for the experimental part: For FACS analysis of the IgG mutants' binding to different FcγRs, FcγR overexpressing CHO cells were harvested using trypsin-EDTA and were suspended in cold staining buffer (3% BSA in PBS). Test IgG mutants, which were diluted in staining buffer, were added into the cells. The mixture was incubated 4° C. for 2 hours, and then washed twice with cold staining buffer and re-suspended in PE-labeled anti-human IgG followed by incubation at 4° C. for 2 hours. The mixture was washed twice with staining buffer and re-suspended in 2% PFA in PBS for FACS.
(In general: Flow cytometry measures light scatter and fluorescence of single cells or particles in a stream.)

The target of assay [9] is T1, human FcRI protein (MednaBio, E1031). The assay is described as follows: BLI. In outline: as §1
This is another data set of the same source.

In assay [10] the target is T2, human FcRIIA protein (MednaBio, E1033). The assay is described as follows: BLI. In outline:
as §1
This is another data set of the same source.

In assay [11] the target is T3, human FcRIIB/C protein (MednaBio, E1034). Kind of assay: BLI. The method in brief:
as §1
This is another data set of the same source.

The target in assay [12] is T7, human FcRn protein (MednaBio, E1032). The assay is described as follows: BLI. In outline:
as §1
This is another data set of the same source.

Assay [13] concerns the target T9, human FcγRI expressed on CHO cells (human, UniProt P12314 16-374).
T9 construct: whole, on cells
The assay is described as follows: FACS, CHO cells expressing FcγRI. In outline: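 Trypsin-harvested CHO cells overexpressing each FcγR were incubated 2 h at 4 °C with IgG mutants in 3% BSA/PBS. Bound IgG was detected with PE-labeled anti-human IgG (2 h, 4 °C), then cells were fixed in 2% PFA and analysed by flow cytometry.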

T1 sequence (P12314 16-288 limits assumed): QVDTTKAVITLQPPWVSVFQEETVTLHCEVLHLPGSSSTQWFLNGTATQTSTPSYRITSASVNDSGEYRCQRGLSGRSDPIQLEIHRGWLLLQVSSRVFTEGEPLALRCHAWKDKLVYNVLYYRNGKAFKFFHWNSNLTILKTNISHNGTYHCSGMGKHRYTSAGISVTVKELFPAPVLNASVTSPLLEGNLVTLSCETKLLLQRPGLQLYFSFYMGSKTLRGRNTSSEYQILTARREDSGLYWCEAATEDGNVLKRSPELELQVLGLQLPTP
T9 sequence (P12314 16-374): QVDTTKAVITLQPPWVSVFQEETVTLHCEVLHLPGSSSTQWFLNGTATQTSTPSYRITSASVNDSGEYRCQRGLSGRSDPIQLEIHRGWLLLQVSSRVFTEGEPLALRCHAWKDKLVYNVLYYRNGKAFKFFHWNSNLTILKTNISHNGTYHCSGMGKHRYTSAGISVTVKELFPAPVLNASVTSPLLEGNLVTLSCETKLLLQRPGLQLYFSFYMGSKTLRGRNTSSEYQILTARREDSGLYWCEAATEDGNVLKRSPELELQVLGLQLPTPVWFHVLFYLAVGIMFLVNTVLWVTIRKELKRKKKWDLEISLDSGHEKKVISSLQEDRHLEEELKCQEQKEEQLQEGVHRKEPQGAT
T6 sequence (O75015 17-200 limits assumed): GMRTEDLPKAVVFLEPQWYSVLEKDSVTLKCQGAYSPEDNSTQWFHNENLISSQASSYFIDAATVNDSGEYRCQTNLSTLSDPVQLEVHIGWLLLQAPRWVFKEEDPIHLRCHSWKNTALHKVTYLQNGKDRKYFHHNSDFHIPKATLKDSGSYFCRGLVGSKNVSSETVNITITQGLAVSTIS

B1: anti-CD137 IgG1 with Fc variant G1m19 (antibody)
heavy: EVQLVQSGAEVKKPGESLRISCKGSGYSFSTYWISWVRQMPGKGLEWMGKIYPGDSYTNYSPSFQGQVTISADKSISTAYLQWSSLKASDTAMYYCARGYGIFDYWGQGTLVTVSSASTKGPSVFPLAPSSKSTSGGTAALGCLVKDYFPEPVTVSWNSGALTSGVHTFPAVLQSSGLYSLSSVVTVPSSSLGTQTYICNVNHKPSNTKVDKKVEPKSCDKTHTCPPCPAPELLSVFLFPPKPKDTLMISRTPEVTCVVVDVEHEDPEVKFNWYVDGVEVHNAKTKPREEQYNSTYRVVSVLTVLHQDWLNGKEYKCKVSNKAFPAPIEKTISKAKGQPREPQVYTLPPSREEMTKNQVSLTCLVKGFYPSDIAVEWESNGQPENNYKTTPPVLDSDGSFFLYSKLTVDKSRWQQGNVFSCSVMHEALHNHYTQKSLSLSPGK
light: SYELTQPPSVSVSPGQTASITCSGDNIGDQYAHWYQQKPGQSPVLVIYQDKNRPSGIPERFSGSNSGNTATLTISGTQAMDEADYYCATYTGFGSLAVFGGGTKLTVLGQPKAAPSVTLFPPSSEELQANKATLVCLISDFYPGAVTVAWKADSSPVKAGVETTTPSKQSNNKYAASSYLSLTPEQWKSHRSYSCQVTHEGSTVEKTVAPTECS
notes: copies: 2 + 2
The term Kd denotes a measure of binding affinity in units of concentration. The low end stands for tighter binding, the high end for weaker binding. As a reminder, the koff is a measure of how fast the partners let go of each other. In general, kon refers to the second-order rate constant of association. The low end stands for slower complex formation, the high end for faster complex formation. Regarding B1, the Kd amounted to 120 nM in [1], 81 nM in [2], 110 nM in assay [3] and 13.4 nM in assay [7]. Besides, the koff in assay [1] was 0.086 s⁻¹; in assay [2], 0.019 s⁻¹; in assay [3], 0.028 s⁻¹; in assay [7] it was 0.0103 s⁻¹. In addition, the kon in assay [1] worked out at 710000 M⁻¹ s⁻¹; in assay [2] it was 240000 M⁻¹ s⁻¹; in assay [3], 260000 M⁻¹ s⁻¹; in assay [7] it was 770000 M⁻¹ s⁻¹. Moreover, the binding result in assay [4] is listed as “no binding (tested: 300 nM)”; in [5] it was “no binding (tested: 300 nM)”; in assay [6], “no binding (tested: 300 nM)”; in assay [8] it was “binds”.

B2: anti-CD137 IgG4 with Fc variant G4m29 (antibody)
heavy: EVQLVQSGAEVKKPGESLRISCKGSGYSFSTYWISWVRQMPGKGLEWMGKIYPGDSYTNYSPSFQGQVTISADKSISTAYLQWSSLKASDTAMYYCARGYGIFDYWGQGTLVTVSSASTKGPSVFPLAPCSRSTSESTAALGCLVKDYFPEPVTVSWNSGALTSGVHTFPAVLQSSGLYSLSSVVTVPSSSLGTKTYTCNVDHKPSNTKVDKRVESKYGPPCPPCPAPEFLGPSVFLFPPKPKDTLMISRTPEVTCVVVDVEQEDPEVQFNWYVDGVEVHNAKTKPREEQFNSTYRVVSVLTVLHQDWLNGKEYKCKVSNKGFPSSIEKTISKAKGQPREPQVYTLPPSQEEMTKNQVSLTCLVKGFYPSDIAVEWESNGQPENNYKTTPPVLDSDGSFFLYSRLTVDKSRWQEGNVFSCSVMHEALHNHYTQKSLSLSLGK
light: B1 light
notes: copies: 2 + 2
Consider B2, for which the Kd in assay [9] came to 44 nM; in assay [10], 260 nM; in assay [11], 78 nM; in [12], 23 nM. Further, the koff in [9] is 0.023 s⁻¹; in assay [10], 0.027 s⁻¹; in [11] it was 0.013 s⁻¹; in assay [12] it was 0.013 s⁻¹. Further, the on-rate constant (kon) in [9] stood at 520000 M⁻¹ s⁻¹; in assay [10], 100000 M⁻¹ s⁻¹; in assay [11], 170000 M⁻¹ s⁻¹; in assay [12], 560000 M⁻¹ s⁻¹. The binding result in assay [8] is on record as “binds”.

B3: anti-CD137 IgG4 with Fc variant G4m17 (antibody)
heavy: EVQLVQSGAEVKKPGESLRISCKGSGYSFSTYWISWVRQMPGKGLEWMGKIYPGDSYTNYSPSFQGQVTISADKSISTAYLQWSSLKASDTAMYYCARGYGIFDYWGQGTLVTVSSASTKGPSVFPLAPCSRSTSESTAALGCLVKDYFPEPVTVSWNSGALTSGVHTFPAVLQSSGLYSLSSVVTVPSSSLGTKTYTCNVDHKPSNTKVDKRVESKYGPPCPPCPAPEFLSVFLFPPKPKDTLMISRTPEVTCVVVDVEQEDPEVQFNWYVDGVEVHNAKTKPREEQFNSTYRVVSVLTVLHQDWLNGKEYKCKVSNKGLPSSIEKTISKAKGQPREPQVYTLPPSQEEMTKNQVSLTCLVKGFYPSDIAVEWESNGQPENNYKTTPPVLDSDGSFFLYSRLTVDKSRWQEGNVFSCSVMHEALHNHYTQKSLSLSLGK
light: B1 light
notes: copies: 2 + 2
With B3, the Kd in assay [10] stood at 600 nM; in assay [11], 280 nM; in [12], 52 nM. Further, the koff in assay [10] stood at 0.024 s⁻¹; in assay [11], 0.019 s⁻¹; in assay [12] it was 0.011 s⁻¹. The figures for the kon in assay [10], in assay [11] and in assay [12] were 40000 M⁻¹ s⁻¹, 68000 M⁻¹ s⁻¹ and 210000 M⁻¹ s⁻¹, respectively. Moreover, the binding result in [13] and in assay [8] was “binds” in each case.

B4: anti-CD137 IgG4 with Fc variant G4m28 (antibody)
heavy: B2 heavy with E262S
light: B1 light
notes: copies: 2 + 2
Regarding B4, the dissociation constant Kd in [9] was determined as 56 nM; in [10] it was 1800 nM; in assay [11], 180 nM; in [12], 20 nM. In addition, the koff in [9] is 0.027 s⁻¹; in assay [10], 0.055 s⁻¹; in [11], 0.034 s⁻¹; in assay [12], 0.012 s⁻¹. In addition, the kon was 490000 M⁻¹ s⁻¹ in [9], 31000 M⁻¹ s⁻¹ in [10], 190000 M⁻¹ s⁻¹ in [11] and 580000 M⁻¹ s⁻¹ in assay [12]. For the same molecule, the binding result in [8] is on record as “binds”.
